Measured values taken from patent publication US20190241669A1 (published 2019).
Numbering of substitutions follows the chain as printed.

B1: L3.PY/L3.KY/H2.DY (antibody, V domains shown)
VH: EVQLLESGGGLVQPGGSLRLSCAASGFTFGSYAMTWVRQAPGKGLEWVSAIDYSGGNTFYADSVKGRFTISRDNSKNTLYLQMNSLRAEDTAVYYCARVSPIASGMDYWGQGTLVTVSS
VL: EIVLTQSPGTLSLSPGERATLSCRASQSVSSSYLAWYQQKPGQAPRLLIYGASSRATGIPDRFSGSGSGTDFTLTISRLEPEDFAVYYCKYYPYPPSFTFGQGTKVEIK
notes: IgG
B2: L3.PY/L3.KY/H2.HA (antibody, V domains shown)
VH: B1 VH with D52S, Y53H, S54A
VL: B1 VL
notes: IgG
B3: L3.PY/L3.KY/H2.LT (antibody, V domains shown)
VH: B1 VH with D52S, Y53L, S54T
VL: B1 VL
notes: IgG
B4: L3.PY/L3.KY/H2.QL (antibody, V domains shown)
VH: B1 VH with D52S, Y53G, S63Q, V64L
VL: B1 VL
notes: IgG
B5: L3.PY/L3.KY/H2.QR (antibody, V domains shown)
VH: B1 VH with D52S, Y53G, S63Q, V64R
VL: B1 VL
notes: IgG
B6: L3.PY/L3.KY/H2.YQ (antibody, V domains shown)
VH: B1 VH with D52S, S54Q
VL: B1 VL
notes: IgG
B7: L3.PY/L3.KY/H3.TAQ (antibody, V domains shown)
VH: B1 VH with D52S, Y53G, A97T, S104A, G105Q
VL: B1 VL
notes: IgG
B8: L3.PY/L3.KY/H3.YA (antibody, V domains shown)
VH: B1 VH with D52S, Y53G, A103Y, S104A
VL: B1 VL
notes: IgG
B9: L1.LGF/L3.KW/H3.AP (antibody, V domains shown)
VH: B1 VH with D52S, Y53G, S104A, G105P
VL: B1 VL with V29L, S30G, S32F, Y91H, P93G, Y94W
B10: L1.LGF/L3.PY/H3.AP (antibody, V domains shown)
VH: B1 VH with D52S, Y53G, S104A, G105P
VL: B1 VL with V29L, S30G, S32F, K90Q, Y91H
B11: L1.LGF/L3.NY/H3.AP (antibody, V domains shown)
VH: B1 VH with D52S, Y53G, S104A, G105P
VL: B1 VL with V29L, S30G, S32F, K90Q, Y91H, P93N
B12: L1.GDF/L3.KW/H3.AP (antibody, V domains shown)
VH: B1 VH with D52S, Y53G, S104A, G105P
VL: B1 VL with S30G, S31D, S32F, Y91H, P93G, Y94W
B13: L1.GDF/L3.NY/H3.AP (antibody, V domains shown)
VH: B1 VH with D52S, Y53G, S104A, G105P
VL: B1 VL with S30G, S31D, S32F, K90Q, Y91H, P93N

Legend:
Human BCMA (human) [1] = biological target: Human BCMA (human) (UniProt Q02223); experiment: SPR, IgG immobilised, huBCMA analyte, 37 C
cynomolgus monkey BCMA = biological target: T1, cynomolgus monkey BCMA (cynomolgus monkey, UniProt A0A2K5UD97 1-53); experiment: SPR, IgG on chip, cyBCMA analyte, 37C
T1 construct: Soluble analyte in SPR; construct not described; also called cyBCMA; Cyno BCMA

Human BCMA (human) [2] = biological target: Human BCMA (human) (UniProt Q02223); experiment: SPR, IgG immobilised, huBCMA analyte, 25 C

T1 sequence (A0A2K5UD97 entry or part of it): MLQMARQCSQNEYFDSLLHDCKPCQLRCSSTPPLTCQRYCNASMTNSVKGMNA

Row | Binder | Kd (Human BCMA (human) [1]) | T½ (Human BCMA (human) [1]) | koff (Human BCMA (human) [1]) | kon (Human BCMA (human) [1]) | Kd (cynomolgus monkey BCMA) | T½ (cynomolgus monkey BCMA) | koff (cynomolgus monkey BCMA) | kon (cynomolgus monkey BCMA) | Kd (Human BCMA (human) [2]) | T½ (Human BCMA (human) [2]) | koff (Human BCMA (human) [2]) | kon (Human BCMA (human) [2])
1 | B1 | 0.2 nM | 18 min | 0.000642 s⁻¹ | 3.19e+06 M⁻¹ s⁻¹ | 1.24 nM | 4.75 min | 0.00243 s⁻¹ | 1.96e+06 M⁻¹ s⁻¹ | – | – | – | –
2 | B2 | 0.49 nM | 7.1 min | 0.00163 s⁻¹ | 3.29e+06 M⁻¹ s⁻¹ | 1.4 nM | 3.63 min | 0.00318 s⁻¹ | 2.28e+06 M⁻¹ s⁻¹ | – | – | – | –
3 | B3 | 0.31 nM | 12.8 min | 0.000906 s⁻¹ | 2.92e+06 M⁻¹ s⁻¹ | 1.27 nM | 4.98 min | 0.00232 s⁻¹ | 1.82e+06 M⁻¹ s⁻¹ | – | – | – | –
4 | B4 | 0.57 nM | 5.56 min | 0.00208 s⁻¹ | 3.65e+06 M⁻¹ s⁻¹ | 1.49 nM | 2.83 min | 0.00409 s⁻¹ | 2.75e+06 M⁻¹ s⁻¹ | – | – | – | –
5 | B5 | 0.34 nM | 11.7 min | 0.00099 s⁻¹ | 2.95e+06 M⁻¹ s⁻¹ | 3.78 nM | 1.49 min | 0.00774 s⁻¹ | 2.05e+06 M⁻¹ s⁻¹ | – | – | – | –
6 | B6 | 0.77 nM | 7.02 min | 0.00165 s⁻¹ | 2.14e+06 M⁻¹ s⁻¹ | 2.04 nM | 4.47 min | 0.00258 s⁻¹ | 1.27e+06 M⁻¹ s⁻¹ | – | – | – | –
7 | B7 | 0.23 nM | 17.8 min | 0.000649 s⁻¹ | 2.79e+06 M⁻¹ s⁻¹ | 1.06 nM | 6.03 min | 0.00192 s⁻¹ | 1.81e+06 M⁻¹ s⁻¹ | – | – | – | –
8 | B8 | 0.28 nM | 12.7 min | 0.000912 s⁻¹ | 3.3e+06 M⁻¹ s⁻¹ | 2.33 nM | 2.7 min | 0.00428 s⁻¹ | 1.84e+06 M⁻¹ s⁻¹ | – | – | – | –
9 | B9 | – | – | – | – | – | – | – | – | 2.44 nM | 5.1 min | 0.00227 s⁻¹ | 928000 M⁻¹ s⁻¹
10 | B10 | – | – | – | – | – | – | – | – | 2.12 nM | 11.9 min | 0.000969 s⁻¹ | 457000 M⁻¹ s⁻¹
11 | B11 | – | – | – | – | – | – | – | – | 0.57 nM | 21.7 min | 0.000533 s⁻¹ | 936000 M⁻¹ s⁻¹
12 | B12 | – | – | – | – | – | – | – | – | 3.93 nM | 2.51 min | 0.00461 s⁻¹ | 1.17e+06 M⁻¹ s⁻¹
13 | B13 | – | – | – | – | – | – | – | – | 1 nM | 8.21 min | 0.00141 s⁻¹ | 1.41e+06 M⁻¹ s⁻¹
